One test has as its system T-cell clonotypes. As to the kind of experiment: FEST assay (functional expansion of specific T cells, TCR Vβ CDR3 sequencing). The test is classed as cell-based, human. The settings on record: pool of TSAs^hi, healthy donor. Here is the method:
For FEST assays, T cells were cultured as previously described, with minor modifications (Danilova et al., 2018). Briefly, on day 0, thawed PBMCs from a healthy donor (BioIVT) were T-cell enriched using the Human Pan T-cell isolation kit (Miltenyi). T cells were resuspended at 2 × 10^6/mL in AIM V media supplemented with 50 µg/mL gentamicin (ThermoFisher Scientific) and 1% Hepes. The T cell-negative fraction was irradiated at 30 Gy, washed and resuspended at 2.0 × 10^6/mL in AIM V media supplemented with 50 µg/mL gentamicin and 1% Hepes. One ml per well of both T cells and irradiated T cell-depleted cells were added to a 12-well plate, along with either one of the 3 TSA^hi pools (5 TSAs^hi per pool, 1 µM final concentration for each TSA) or without peptide. Cells were cultured for 10 days at 37° C., 5% CO2. On day 3 and 7, half the culture media was replaced with fresh culture media containing 100 IU/mL IL-2, 50 ng/mL IL-7, and 50 ng/mL IL-15 (day 3) and 200 IU/mL IL-2, 50 ng/mL IL-7, and 50 ng/mL IL-15 (day 7). On day 10, cells were harvested and CD8^+ cells were further isolated using the Human CD8^+ T Cell Isolation Kit (Miltenyi). As a negative control, CD8^+ T cells were also isolated from freshly thawed uncultured PBMCs of the same healthy donor. DNA was extracted from CD8^+ T cells using a Qiagen DNA blood mini kit (Qiagen). […]

The target of test [1] is Pool 2 of TSAs^hi: … … … … …. As to the kind of experiment: cell-based or functional assay.
Test [2] deals with Pool 1 of TSAs^hi: … … … IASPIALL …. The test can be described thus: cell-based or functional assay.
Test [3] concerns the target Pool 3 of TSAs^hi: LRSQILSY … … … …. As to the kind of experiment: cell-based or functional assay.

From US20230287070A1, “NOVEL TUMOR-SPECIFIC ANTIGENS FOR ACUTE MYELOID LEUKEMIA (AML) AND USES THEREOF” (UNIVERSITE DE MONTREAL, priority 2020, published 2023) come the findings set out here.

Regarding “3 (GARQQIHSW; listed as Homo sapiens) [compound 3]”, the “Significantly expanded clonotype (SEQ ID NO:)” value in the test with T-cell clonotypes is “CARSFGGFF (213)”.
On to CASSEYRALNTEAFF (TCR), for which the FEST assay: clonotype expansion, odds ratio (FDR 4.67 E-30) in test [1] worked out at 59.8.
With CASSESGTGGQPQHF (TCR), the FEST assay: clonotype expansion, odds ratio (FDR 1.14 E-08) in test [1] was found to be 3.46.
For the molecule CASSSTDRQHYGYTF (TCR), the FEST assay: clonotype expansion, odds ratio (FDR 0.007052) in test [1] is 3.76.
For the molecule CASTVVAGNSSPLHF (TCR), the FEST assay: clonotype expansion, odds ratio (FDR 1.2 E-07) in test [2] came to 18.8.
Take CASSVDAGGNYEQYF (TCR): in test [2], the FEST assay: clonotype expansion, odds ratio (FDR 0.000665) worked out at 12.3.
As for CASSRTGENTEAFF (TCR), the FEST assay: clonotype expansion, odds ratio (FDR 0.003813) in test [1] amounted to 3.35.
For the molecule CASSYVLNTEAFF (TCR), the FEST assay: clonotype expansion, odds ratio (FDR 0.010284) in test [1] was 10.8.
With CASSADSSLGGYTF (TCR), the FEST assay: clonotype expansion, odds ratio (FDR 1.13 E-10) in test [3] came out at 45.4.
Consider CATSRSGDSNQPQHF (TCR), for which the FEST assay: clonotype expansion, odds ratio (FDR 0.008031) in test [1] came out at 8.21.
For the molecule CASSDRTGGSSNEKLFF (TCR), the FEST assay: clonotype expansion, odds ratio (FDR 0.008031) in test [1] is 8.21.
